# In the DeepSol protein solubility set:
# Test: soluble on expression in E. coli; label from the status in PepcDB or PDB records
row,Sequence,soluble on expression in E. coli
1,MRVLVKLSGEALSGEGGRGFDPERVNYIVNEIKSAIEEGFKIGIVVGAGNLFRGVELKNLTMTRADQIGLLGTVMNSVYLKDIFERSGLKARIYSQIVNLPDVERVNYDSIESALRENSILIFAGGTSNPFFTTDTAAVLRAQEMRAKLVVKATKVDGVYDKDPKKFPDAKKIPHLTFSEAMKMGLKVMDAEAFALCKKLGITVKVINFFEPGTLLKALKGEDVGSTVVPD,soluble
2,MRVQILKDFVKQHFPATPLLDYALEVEKITTSKKPNLILNVDGFIGVAFVDMLRNCGSFTREEADEYVDIGALNGIFVLGRSMGFIGHYLDQKRLKQGLYRHPWDDISYVLPEHMSM,not soluble
3,MRVRSETVNKPQSLRHALNKAVPYVRNNPDKLHLFVDNGSLVATGASSMSWEYRYTLNAVIEDFSGDQNLLMAPVLLWLRDNQPDAINNPALREKLFTFEVDILRNDVCDISLNLQLTERVLVSTDGSVSSVEAVAEPDEPEEMWTVKRG,not soluble
4,MRVVAAHENLDFDALGSMVLAGRLYPGSVLALVGGVEGVLREVLPLLEDRLDLVPASEIPLDRVREVVLVDNARPERLGPLAALVGRVPFLVYDHHPRTPGDVPAVGGRVAPVGATVSLLVPLLLERGVALDPLEATLAYAGLWEDTGGFSFPSTTPEDLEAAGHLLRQGAEVARVRDWVRPRFGEEAREILSQLLKTAHLVERKGFRLLVARAREKGYVPALAPLAHTLLDLYEADGVLLALRLGGDTLLIARSKARLDVGRWLGALGGGGHARAAFARVRGKGRALARLLETLEAFLDPEPTLGQAMTAPVETLRPTSVREALRQLEERGYGAMPVVEPLGEGVRVLGLARRRDLRKAVRLGFGDHPVEGFLVRAVVLPPSTPLSQVEPRLREAGGRVLVGERAGEGWRLLGIYTRTDLYRSAPRPEPTLAERVLKALPSGVFRVVEALREAFPEGVYLVGGAVRDALLGRSGPDLDLAVGPGVEVARVAQFLVDRFGGSYGLHYAFGTARVRLPFGLVVDLAESREEVYPYPGALPEVRRAPIARDLERRDYSVNAMAVDLGGLAFLDPYGGLRDLEARLLRPLHPLAFVEDPTRVVRGARLAARLGFRFAEEVPRLLAPALLPEVVAGASRSRLREELLLTLEEEAFYRALALLAELGALKALYGLDLPPEAPFLRLRAEEGLGEARLLLLLFHQKDPLERAAWLALPGRLREGLALLLAASRGEEVPKEALGREPLRAAFLALFPEKEAWLKAERRVLMGRDLLKLGLKPGPKVGEILRRVAEARRRGEVRSFEEELALARKLLGDGTLALPE,soluble
5,MRVVVCGGGVIGACAAYFLRRRGIDVTVVERTEVAAAASGKAGGFLARDWCTGTPLDALARRSFALHAQLPEDISGDWGYRPMTAYSGFVASDGDARRDAPSALGWLSDGVVIAQRIGTAETTAIVHPRKFTSAVMNAALAQGAELRPGRVTGITRGTDGMTAGGVEIDGDLVEADAVVIAMGPWSLLAAQWMSLPPVYGQRSPSIVYDTAADAPAEALFLESEEDGSAVSIEVFPRADGSTHITALSDIAPLPLDPAAVTPDRDAIARLQTVSERLSPLFRPERIIAQQACFRPVTQDGLPLIGKVPRSDGLYVATGHNVWGILNAPATGEALAELIAEGATREIDLSPFDPARLTPLDPSLLQARLEHHHHHH,not soluble
6,MRYADRVTFVKTTDEQYNPDLGEYTHTEVISITKPCFVMDMGMEKSVQIFGDYQKDRKVIYLKQPYTKAFDYCEYEGRRYKTQANKLGAIVFYLEGDDSIGG,not soluble
7,MRYCQFEGCSNTTEKGAYCSEHARKSRKKKKPINVYHHDNKSFYRTKEWQDVADFVYEREGGCCQRCGRFVFGRQAHRHHVIPIKKNEMLKLDPNNIRLLCPKCHVIEENEADEKKVFPSYFKK,not soluble
8,MSAAGVRSTRQRAAISTLLETLDDFRSAQELHDELRRRGENIGLTTVYRTLQSMASSGLVDTLHTDTGESVYRRCSEHHHHHLVCRSCGSTIEVGDHEVEAWAAEVATKHGFSDVSHTIEIFGTCSDCRS,soluble
9,MSAATPLIVQQAEAEQLLARIDVLQAMRQLFLDLAAGQALQPAQQLVEFPAGRGDFINYLGVLAQEQVYGVKTSPYIVREQGPLVTAWTLLMSMQTGQPLLLCDAARLTTARTAATTAVAVDALAPAEACRLALIGSGPVAHAHLQYVKGLRDWQGVRVHSPCLDERRLQSLRAIDPRAEAAGSLEEALDEADVILLCTSSARAVIDPRQLKRPALVTSISTNAPRAHEVPAESLAAMDVYCDYRHTTPGSAGEMLIAAEQHGWSPEAIRGDLAELLSAQAPRPEYRRPAFFRSIGLGLEDVALANALYRLRQAG,not soluble
10,MSAAVQKRASTNTVAATTYFKPAPSEIAWGKMRFLITDRPNNSSIQSYIEELEKHGARAVVRVCEPTYDTLALKEAGIDVLDWQFSDGSPPPPEVIKSWFQLCMTSFKEHPDKSIAVHCVAGLGRAPVLVAIALIEAGMKYEDAVEMIRTQRRGALNQKQLKFLETYKANGELRRLRGNVDGKQKSCCIQ,not soluble
11,MSADYPRDLIGYGNNPPHPHWPGDARIALSFVLNYEEGGERCVLHGDKESEAFLSEMVAAQPLQGVRHMSMESLYEYGSRAGVWRLLKLFKRRNVPLTVFAVAMAAQRNPEVIRAMVADGHEICSHGYRWIDYQYMDEAQEREHMLEAIRILTELTGQRPVGWYTGRTGPNTRRLVMEEGGFLYDSDTYDDDLPYWDPASTAEKPHLVIPYTLDTNDMRFTQVQGFNNGEQFFQYLKDAFDVLYEEGATAPKMLSIGLHCRLIGRPARMAALERFIQYAQSHDKVWFARREDIARHWHREHPFQETEA,soluble
12,MSAEAVAAAPIAEEATPVVYYSIESNDRVVLKISEQAIKQSATLSNSITNLGYSAENAESMVPIPIEKVNGKTLKLVVEWCEHHKADPVPEAYPSGNTVLPVWDRKFVDIEHDALTDLVNASNFLEVMTLLTYCCKFIAGLAKGMSPEEMRVFFCIPTDEEDEKAERFGKEKTEASATSADTTA,not soluble
13,MSAEGFLAEHAHRRPSSRRRRAAQFGSPLTPGQDETVSDRTTADLERELAMLAYVRDRLRASEGEGFRIPTTAVDQVLDERNSLERSPWDPT,not soluble
14,MSAETATIPEVSNQETKAEKVIADSLEAKKDESAAVEINGSSTHENGDTNIEKKTEEPVVEAKVSEEPATTSETPAAQVTESQKDEKTDDAPAEPAEVAVEAAKEEPVVEEKKEDAPEPVVTEEKKSEEAPAPEEKKSEEVVAAEEKKEPAAVVEEKKEVPETPVVEDKKEEAPASSEEKKDEPVVNTEEKKDAAEAPAADEESEAAEEKVAETTVAPVATPSGRGRGRGRGRPPGPNATPKAAASEKKRAAKPKAAVNPESIAASRPRRSTSNRIDYANSDTSTVLAEVDDEIPGKLFRGRKPPRGKITKYVSDSDGAPSDEDDVDFGKKKKGAPSTRGRGRPPSSNRPTRAAATKRSAKDASDESNEDEIEYDDKSDEDVSPRKKARGAPARAAADDEDDEGEEMDASEEVEA,not soluble
15,MSAIDCIITAAGLSSRMGQWKMMLPWEQGTILDTSIKNALQFCSRIILVTGYRGNELHERYANQSNITIIHNPDYAQGLLTSVKAAVPAVQTEHCFLTHGDMPTLTIDIFRKIWSLRNDGAILPLHNGIPGHPILVSKPCLMQAIQRPNVTNMRQALLMGDHYSVEIENAEIILDIDTPDDFITAKERYTEILEHHHHHH,soluble
16,MSAMNARQGILSLALKDKPALYSAYMPFVKGGGIFVPTPKRYMLGDEVFLLLTLPDSSERLPVAGKVIWTTPAGAQGNRAAGIGVQFPDGPEGEAVRNKIETLLAGLTTSDKPTHTM,soluble
17,MSAPWETLLDWWFGTSSDAAEVVAQRNGLWFGKNVCQDADAGGRFGDLVNQALDGGLQEWTAEADGWLALILLLDQLPRMIYRDTPRAYAGDARAQRVVREGLEKGFDRQLPPVRRVFAYLVLEHAEDLPSQERAVACFRDLRDQVGGSVRKPFDDFYDYAERHHAVVARFGRFPHRNAILGRPSSEEETAFLREPGSRF,not soluble
18,MSASSSSALPPLVPALYRWKSTGSSGRQVQRRCVGAEAIVGLEEKNRRALYDLYIATSLRNIAPASTLLTLQNLKEMFELALLDARFEHPECACTVSWDDEVPAIITYESPESNESARDWARGCIHVQPTAKSALDLWSEMEEGRAAANDNTPSKSIELFLLSDVSTDSTPIPQDATVEILFHSNHLFWDGIGCRKFVGDLFRLVGSYIGRSDSREMKKIQWGQEIKNLSPPVVDSLKLDINTLGSEFDDKCTEYTSALVANYKSRGMKFQPGLALPRCVIHKLSADESIDIVKAVKTRLGPGFTISHLTQAAIVLALLDHLKPNDLSDDEVFISPTSVDGRRWLREDIASNFYAMCQTAAVVRIENLKSITVSHKDEKELQVRALESACRNIKKSYRQWLENPFLQALGLRVHNFEASYLHAKPIPFEGEANPLFISDGINERFIPHEIKQTATGENVLSVESIDFVVNQSLPYLAIRLDSWRDASTLNIIYNDANYTEAEVQKYLQSIVEFMLAFRL,soluble
19,MSATETKYVPRLYKKYKEEVVPILQKKFNYKSPMQIPRLQKIVVNMGVGEAVQDIRQLERAVEDLRAITGQQPVITRARKSEAGFKLRKGMPIGCKVTLRKERMWDFLDKLISVALPRVKDFKGLSPRSFDGRGNYAFGIAEQIVFPEIDYDKVDRIRGMDIIINTTAETDEEAFWLLSLLGLPIRSM,soluble
20,MSAYIAPSQIAQRQLEYFNGKHVLVAGEVEDMFPLELTAHCESVEVFTSNYSYFRQIRHSDKIKSHFGSEFDVETQADMLLLYWPKAKAEAEYLLAMLMAKLGVNTEIVVVGENRSGVKSIEKMFKEYGPVNKYDSARRCSFYWGNCLNEPKPFNQEEWFKSYTVTLGEQSLTVKSLPGVFSHGEFDLGSRLLLETLPNLSGKVLDFGCGAGVLGAFMAKANPEIAIEMCDINAYAITSSQATLEANGLSGRVFASDIYSDTANDYRFIISNPPFHSGLDTNYNAAETLLGHAPQHLSNHGEMIIVANSFLKYPPIIENAFNNCETLNKTNKFSIYYAKKS,not soluble
21,MSDALVWQVIRNNSAFLRTQRGIGKRFSTEKFNLKKVNSPKYSGLANKHAIDVSAAAKGVVVSTKNEKGRPAKAVTTSTLSKTPVASVRRLAKNAGFNKFNKLAQRRAAAIVRSQVKKAKVQKTDA,not soluble
22,MSDDALSRIAAALERMSPPPMPAPDFSAVDAFAWHTSPDRLEPVPRVARVDLSLLVGVNRARDILLDNTEHFARGLPANNALLWGSRGMGKSSLVKAIHAAVVAKGLPLKIVELSREDLPSVQRLLKHLRGAPFRFILFCDDLSFSHDDQHYKSLKAVLDGGIEGRPENVILYATSNRRHLMPRDMIENERSTAISPSEAVEEKVSLSDRFGLWLGFHPCSQDEYLEMIRGYCAAHGLSVAEEELRAEAIEWQATRGARSGRVAWQFFTDLAARHGVALLEHHHHHH,not soluble
23,MSDDLSAFFAKKKDKKKKSAVKIEEVGQALERRAKRQEEYEQESEDVSEKRVEEEKAVNPNEESEWIEYGESQGRLDGLKIKDMGLESEQDQVNNEEPEDREVHETKTWGQVSSEKKATEEPEQAVTISDKAMAAAYKPPAMRRPGAPYRPRAAAANLDMGSDAAFPSLADASKIEKNKKEESKSPGGWVKAGSGGAWPGSSGPSSSGSSRSYPTTAGSGRDSALAALKMMSAANPAPARNEPAPAPAAAAPASSGAAKAGSYVPPHLRKNQ,not soluble
24,MSDEKKSTDIDLKNLKAGGFIKERGKDLFTVRLRVPGGRMPVARLKKIAEVAEKYGQGMVHLSVRQSVELININFRDFDAVVAELGEGTQKVASCGARVRVPTACGGCEYNPNGLVDTQKSALEVDEKLFGTSTGHHKFKVGFAGCPFDCPKSATNDVGFQGAIWPVLYADECIGCGLCDKSCTEDAIVMGDDGKPRFIPENCLYCGDCLKVCPSEAWRAEKKGYTVRIGGKWGRRPLVGTLFAEFLPEEQVFDFIAAVLDWYKEKAEGQGRIRLGDVIRAEGPDALLGYLRERFPAAVVDATIPPQRIATQIGKEKRVPLEHHHHHH,soluble
